# Assay results: US11260098B2, “Method for suppressing obesity or development of obesity” (priority 2014, dated 2022)
# Key:
# [1] = tested on: mice; assay: Conditioned taste aversion preference test; type: in vivo; conditions: i.p. 0.5 ml, dose giving about 1/2 food suppression (1/4 dilution, 1/16 dilution, undiluted filtrate), FIG. 14
# Procedure: 8. […] To define whether the appetite-suppressing effects induced by the undiluted solution of liquid component, the residual liquid containing the >3,000 component, and the filtrated liquid containing the <3,000 component were non-specific, a conditioned taste aversive test (a conditioned taste aversion preference test) was carried out in mice. For 5 days, each of mice was adapted to two bottles containing water, allowing to the drinking schedule of 2 hours per day (10:00 am to 12:00). On Day 6 of the test, each mice was allowed to drink water for 30 minutes followed by installation of 2 bottles added with saccharine solution (0.15%). Thereafter, saline, the liquid components or lithium chloride (molecular weight: 42.4 daltons) solution, each in an amount of 0.5 ml, was intraperitoneally administered to mice (n=5), and the conditions were set up as the aversion learning of the taste against saccharine solution. Subsequently, each of mice was subjected to drink for 90 minutes using 2 botties with water. […] On Day 8 of the test, the animals were allowed to drink for 30 minutes using 2 bottles with either water or saccharine solution, and the preference ratio for drinking of saccharine solution (the amounts of saccharine solution intake÷the amounts of entire water intake for 2 bottles) was calculated. […] The data are expressed as mean value±standard deviation. […]
# [2] = intraperitoneal administration; cited from earlier work
# [3] = tested on: rat; conditions: centrally administered to the rat ventricle; cited from earlier work
Molecule,preference intake of saccharine solution [1],appetite suppression [2],food intake [3]
[Cl-].[Li+] [lithium chloride],significantly suppressed,–,–
"nesfatin-1: satiety molecule generated by processing of the secretory protein nesfatin; human nesfatin-1 9,695 daltons (protein, UniProt P80303 25-106, looked up, Nesfatin-1, satiety molecule generated by processing of the secretory protein nesfatin; human nesfatin-1 9,695 daltons) Nesfatin-1: VPIDIDKTKVQNIHPVESAKIEPPDTGLYYDEYLKQVIDVLETDKHFREKLQKADIEEIKSGRLSKELDLVSHHVRTKLDEL",–,induced appetite suppression in a dose-dependent manner,significantly suppressed
